Laboratory results as given in patent US20240368668A1, “SUBSTRATES AND BIOMARKERS OF ADAMTS7” (The Broad Institute, Inc., priority 2021, published 2024).

Molecular target: T1, mouse ADAMTS7 (Mus musculus, UniProt Q68SA9, E373Q)
T1 construct: Full-length mouse Adamts7 1-1857 (Uniprot Q68SA9, WT or E373Q catalytic mutant); expressed in transfected cells; host or cells: Human Coronary Artery Smooth Muscle Cells (HCA-SMC, Lonza), adenovirus 50 MOI
T1 sequence (Q68SA9 221-1657 E373Q): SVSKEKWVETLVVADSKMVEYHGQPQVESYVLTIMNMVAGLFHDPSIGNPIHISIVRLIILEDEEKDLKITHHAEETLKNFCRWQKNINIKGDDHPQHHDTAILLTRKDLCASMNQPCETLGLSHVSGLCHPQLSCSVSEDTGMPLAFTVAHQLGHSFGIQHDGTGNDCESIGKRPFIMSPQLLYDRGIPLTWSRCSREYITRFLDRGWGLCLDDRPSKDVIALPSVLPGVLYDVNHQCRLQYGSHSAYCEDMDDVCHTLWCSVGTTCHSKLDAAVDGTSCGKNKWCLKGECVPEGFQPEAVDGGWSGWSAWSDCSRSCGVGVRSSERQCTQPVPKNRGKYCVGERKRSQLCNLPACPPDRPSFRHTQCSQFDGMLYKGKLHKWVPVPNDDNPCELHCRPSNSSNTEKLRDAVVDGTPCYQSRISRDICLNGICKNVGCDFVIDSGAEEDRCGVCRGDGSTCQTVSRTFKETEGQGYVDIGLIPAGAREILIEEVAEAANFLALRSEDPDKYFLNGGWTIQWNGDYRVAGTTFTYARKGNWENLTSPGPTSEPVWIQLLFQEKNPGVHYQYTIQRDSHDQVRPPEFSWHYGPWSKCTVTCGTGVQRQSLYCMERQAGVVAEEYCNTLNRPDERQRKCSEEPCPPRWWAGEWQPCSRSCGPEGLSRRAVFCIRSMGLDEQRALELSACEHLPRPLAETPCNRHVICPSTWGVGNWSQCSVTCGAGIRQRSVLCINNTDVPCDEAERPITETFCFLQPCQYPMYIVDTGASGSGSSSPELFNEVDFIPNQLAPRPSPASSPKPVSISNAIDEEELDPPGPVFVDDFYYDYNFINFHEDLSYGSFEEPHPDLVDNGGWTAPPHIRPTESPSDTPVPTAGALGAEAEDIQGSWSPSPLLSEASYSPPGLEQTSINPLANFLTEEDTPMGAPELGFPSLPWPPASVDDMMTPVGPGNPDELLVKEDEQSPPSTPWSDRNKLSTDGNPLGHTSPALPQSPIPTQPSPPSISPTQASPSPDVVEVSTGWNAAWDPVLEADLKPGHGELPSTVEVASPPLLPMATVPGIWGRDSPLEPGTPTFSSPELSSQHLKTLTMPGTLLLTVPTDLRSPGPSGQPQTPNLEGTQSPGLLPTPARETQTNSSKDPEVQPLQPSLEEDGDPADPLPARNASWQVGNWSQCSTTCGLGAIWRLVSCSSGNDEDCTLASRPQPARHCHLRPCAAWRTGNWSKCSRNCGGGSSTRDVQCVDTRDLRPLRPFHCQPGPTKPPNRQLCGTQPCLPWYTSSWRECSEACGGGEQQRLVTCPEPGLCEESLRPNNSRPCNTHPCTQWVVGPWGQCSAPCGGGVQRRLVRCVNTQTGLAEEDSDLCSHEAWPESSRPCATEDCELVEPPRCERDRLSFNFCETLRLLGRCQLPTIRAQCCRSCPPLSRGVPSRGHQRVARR
Assay: TMT10 TAILS N-terminomics, SMC2 experiment (process replicates, trypsin/AspN digest)
Type: cell-based
Details: log fold change
Summary of the method: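 Full-length mouse ADAMTS7 (WT or E373Q mutant, C-terminal 3xFLAG) or luciferase was transduced via adenovirus, 50 MOI, into HCA-SMC (SMC1, SMC2) or HUVEC. SMC1: pooled media, technical triplicates 400 ug; SMC2: process triplicates 300 ug; HUVEC: process triplicates 200 ug, bFGF2 10 ng/ml.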

Row | logFC.mEQ.over.Luc (ADAMTS7 EQ over luciferase) | logFC.mEQ.over.Luc (SMC2_TAILS HC, mEQ over Luc) | Substance
1 | 0.18 |  | TGFBI_524 (SAGLTETLNR; listed as Homo sapiens)
2 |  | −0.14 | LASP1_182 (SYGGYKEPAAPVSIQR; listed as Homo sapiens)
3 | −0.30 |  | TMEM132A_52 (LLDAPEHFR; listed as Homo sapiens)
